experiment: soluble on expression in E. coli; label from the status in PepcDB or PDB records

Sequence	soluble on expression in E. coli
VADRLIVKGAREHNLRSVDLDLPRDALIVFTGLSGSGKSSLAFDTIFAEGQRRYVESLSAYARQFLGQMDKPDVDFIEGLSPAVSIDQKSTNRNPRSTVGTITEVYDYLRLLYARAGTPHCPTCGERVARQTPQQIVDQVLAMPEGTRFLVLAPVVRTRKGEFADLFDKLNAQGYSRVRVDGVVHPLTDPPKLKKQEKHDIEVVVDRLTVKAAAKRRLTDSVETALNLADGIVVLEFVDHELGAPHREQRFSEKLACPNGHALAVDDLEPRSFSFNSPYGACPECSGLGIRKEVDPELVVPDPDRTLAQGAVAPWSNGHTAEYFTRMMAGLGEALGFDVDTPWRKLPAKARKAILEGADEQVHVRYRNRYGRTRSYYADFEGVLAFLQRKMSQTESEQMKERYEGFMRDVPCPVCAGTRLKPEILAVTLAGESKGEHGAKSIAEVCELSIADCADFLNALTLGPREQAIAGQVLKEIRSRLGFLLDVGLEYLSLSRAAATLSGGEAQRIRLATQIGSGLVGVLYVLDEPSIGLHQRDNRRLIETLTRLRDLGNTLIVVEHDEDTIEHADWIVDIGPGAGEHGGRIVHSGPYDELLRNKDSITGAYLSGRESIEIPAIRRSVDPRRQLTVVGAREHNLRGIDVSFPLGVLTSVTGVSGSGKSTLVNDILAAVLANRLNGARQVPGRHTRVTGLDYLDKLVRVDQSPIGRTPRSNPATYTGVFDKIRTLFAATTEAKVRGYQPGRFSFNVKGGRCEACTGDGTIKIEMNFLPDVYVPCEVCQGARYNRETLEVHYKGKTVSEVLDMSIEEAAEFFEPIAGVHRYLRTLVDVGLGYVRLGQPAPTLSGGEAQRVKLASELQKRSTGRTVYILDEPTTGLHFDDIRKLLNVINGLVDKGNTVIVIEHNLDVIKTSDWIIDLGPEGGAGGGTVVAQGTPEDVAAVPASYTGKFLAEVVGGGASAATSRSNRRRNVSA	not soluble
VAERFVVTGGNRLSGEVAVGGAKNSVLKLMAATLLAEGTSTITNCPDILDVPLMAEVLRGLGATVELDGDVARITAPDEPKYDADFAAVRQFRASVCVLGPLVGRCKRARVALPGGDAIGSRPLDMHQAGLRQLGAHCNIEHGCVVARAETLRGAEIQLEFPSVGATENILMAAVVAEGVTTIHNAAREPDVVDLCTMLNQMGAQVEGAGSPTMTITGVPRLHPTEHRVIGDRIVAATWGIAAAMTRGDISVAGVDPAHLQLVLHKLHDAGATVTQTDASFRVTQYERPKAVNVATLPFPGFPTDLQPMAIALASIADGTSMITENVFEARFRFVEEMIRLGADARTDGHHAVVRGLPQLSSAPVWCSDIRAGAGLVLAGLVADGDTEVHDVFHIDRGYPLFVENLVSLGAEIERVCC	not soluble
VAIRNFDISKISGEWYSIFLASDVKEKIEENGSMRVFVDVIRALDNSSLYAEYQTKVNGECTEFPMVFDKTEEDGVYSLNYDGYNVFRISEFENDEHIILYLVNFDKDRPFQLFEFYAREPDVSPEIKEEFVKIVQKRGIVKENIIDLTKIDRCFQLRG	soluble
VALSADIVGMHYRYPDHYEVEREKIREYAVAVQNDDAWYFEEDGAAELGYKGLLAPLTFICVFGYKAQAAFFKHANIATAEAQIVQVDQVLKFEKPIVAGDKLYCDVYVDSVREAHGTQIIVTKNIVTNEEGDLVQETYTTLAGRAGEDGEGFSDGAA	soluble
VARSSKLLGWCQRQTDGYAGVNVTDLTMSWKSGLALCAIIHRYRPDLIDFDSLDEQNVEKNNQLAFDIAEKELGISPIMTGKEMASVGEPDKLSMVMYLTQFYEMFKD	soluble
VASGYGGIRVGGPYFDDLSKGQVFDWAPGVTLSLGLAAAHQSIVGNRLRLALDSDLCAAVTGMPGPLAHPGLVCDVAIGQSTLATQRVKANLFYRGLRFHRFPAVGDTLYTRTEVVGLRANSPKPGRAPTGLAGLRMTTIDRTDRLVLDFYRCAMLPASPDWKPGAVPGDDLSRIGADAPAPAADPTAHWDGAVFRKRVPGPHFDAGIAGAVLHSTADLVSGAPELARLTLNIAATHHDWRVSGRRLVYGGHTIGLALAQATRLLPNLATVLDWESCDHTAPVHEGDTLYSELHIESAQAHADGGVLGLRSLVYAVSDSASEPDRQVLDWRFSALQF	soluble
VDNDKLKDGYVNFINILNLDDMYVKKMREWRNQDFVRQRMFNREIITEEEHARFIEHLKDNREKNYYVCFLGNKPFGVLYYEFFRKNNNLEFGYYLTEQEFINSGLGIVMEYSLLNHAFYDLKVNKVFCRTLSSNEKVVSLHMNFGFETEGILRQHVRINDGYEDITIQAINERAWAQNRPKIEKYLRVIVDVDKIGPITGRS	soluble
VDSVFIVGHRKLDMDALGASVGMQFFASNIVNASYVVYDPNDMNSDIERAIDYLQEDGETRLVSVERAFELITQNSLLVMVDHSKTALTLSKEFFNKFADVIVVDHHRRDEDFPKNAVLSFIESGASSASELVTELIQFQQAKDKLSRSQASILMAGIMLDTRNFASNVTSRTFDVASYLRGLGSNSMAIQKISATDF	not soluble
VFPSSVYVPDEWEVSREKITLLRELGQGSFGMVYEGNARDIIKGEAETRVAVKTVNESASLRERIEFLNEASVMKGFTCHHVVRLLGVVSKGQPTLVVMELMAHGDLKSYLRSLRPEAENNPGRPPPTLQEMIQMAAEIADGMAYLNAKKFVHRDLAARNCMVAHDFTVKIGDFGMTRDIYETDYYRKGGKGLLPVRWMAPESLKDGVFTTSSDMWSFGVVLWEITSLAEQPYQGLSNEQVLKFVMDGGYLDQPDNCPERVTDLMRMCWQFNPNMRPTFLEIVNLLKDDLHPSFPEVSFFHSEENK	soluble
VGAIMLDGKATRDEIFGDLKQRVAALDAAGRTPGLGTILVGDDPGSQAYVRGKHADCAKVGITSIRRDLPADISTATLNETIDELNANPDCTGYIVQLPLPKHLDENAALERVDPAKDADGLHPTNLGRLVLGTPAPLPCTPRGIVHLLRRYDISIAGAHVVVIGRGVTVGRPLGLLLTRRSENATVTLCHTGTRDLPALTRQADIVVAAVGVAHLLTADMVRPGAAVIDVGVSRTDDGLVGDVHPDVWELAGHVSPNPGGVGPLTRAFLLTNVVELAERR	soluble
VGEVNLSARGNFTFARNEILEYDQVPQVYPWLEKKGTRLNSWKLYIADGLYTADDFNITGEGLNRQYELKPGVVSGLSSGVRPGDIKYKDLNGDGKIDSNDQMEDVGNPSVPEIVYGFGLNAEWKGAYVGIFFQGSGNTSTVLGASSNGAFFPFQWGVEESAVRSEVANRWTEQNPSQNVMFPRMHSTNYDNNTAASTWWLRNASFLRLKNIEVGYNFKEKTLKKIGIQALRVYLQGNNLCVWDDIKMWDPELGNTNGGFSYPLSRTFTFGLDFTF	not soluble
VGKTVKREYCHEENDEELRKAVHDACYDKSYAIAASGNRNKHERQDAFDAIRDEFKAQFSEEELEEKGALIDRYYHDVEKEAMRRCILDEGKRLDGRKTTEIRP	not soluble
VINESEKEMIDSIFEFDDRIAEEVMTPRTEVYLINIDTPLNKYVDELLEIKYSRVPVFEGDSDNIIGILYIKDFIVEARKVGFENVNIKNIIHSPYFVPERKNINELFKELQAAKKHMAVLIDEYGGFSGIVTIEDLIEEVMGNISDE	soluble
VKPPHGFQKKMKLEVVDKRNPMFIRVATVADTDDHRVKVHFDGWNNCYDYWIDADSPDIHPVGWCSKTGHPLQPPLSPLELMEASEHGGCSTPG	soluble
VPDSSTALRILVYSDNVQTRERVMRALGKRLHPDLPDLTYVEVATGPMVIRQMDRGGIDLAILDGEATPTGGMGIAKQLKDELASCPPILVLTGRPDDTWLASWSRAEAAVPHPVDPIVLGRTVLSLLRAPAH	soluble
VPGPEYKVAILTVSDTVSAGAGPDRSGPRAVSVVDSSSEKLGGAKVVATAVVPDEVERIKDILQKWSDVDEMDLILTLGGTGFTPRDVTPEATKKVIERETPGLLFVMMQESLKITPFAMLARSAAGIRGSTLIINMPGNPNAVAECMEALLPALKHALKQIKGDKR	soluble
VPYKGYLIDLDGTIYQGKNRIPAGERFIKRLQERGIPYLLVTNNTTRTPEMVQSMLANQFHVETSIETIYTATMATVDYMNDMNRGKTAYVIGETGLKSAIAAAGYVEELENPAYVVVGLDSQVTYEMLAIATLAIQKGALFIGTNPDLNIPTERGLMPGAGALNALLEAATRVKPVFIGKPNAIIMNKSLEVLGIQRSEAVMVGDNYLTDIMAGIQNDIATILVTTGFTRPEEVPTLPIQPDHVLSSLDEWRL	soluble
VQREDGSWLLDGLIAVPELKDTLGLRAVPEEEKGVYHTLSGMIMWLLGRLPQTGDITFWENWRLEVIDMDSKRIDKVLATKIDNQPTEDPKPVA	soluble
VRALLAQNRLVTLCGTGGVGKTRLAIQIASASELRDGLCFVDLAPITESGIVAATAARAVGLPDQPGRSTMDSLRRFIGNRRMLMVLDNCEHLLDACAALVVELLGACPELTILATSREPIGMAGEITWRVPSMSITDEAVELFADRASRVQPGFTIANHNAAAVGEICRRLDGIPLAIEFAAARVRSMSPLEIADGLDDCFRLLAGGVRGAVQRQQTLRASIDWSHALLTETEQILFRRLAPFVGGFDLAAVRAVAAGSDLDPFSVLDQLTLLVDKSLVVADDCQGRTRYRLLETVRRYALEKLGDSGEADVHARHRDYYTALAASLNTPADNDHQRLVARAETEIDNLRAAFAWSRENGHITEALQLASSLQPIWFGRAHLREGLSWFNSILEDQRFHRLAVSTAVRARALADKAMLSTWLATSPVGATDIIAPAQQALAMAREVGDPAALVRALTACGCSSGYNAEAAAPYFAEATDLARAIDDKWTLCQILYWRGVGTCISGDPNALRAAAEECRDLADTIGDRFVSRHCSLWLSLAQMWAGNLTEALELSREITAEAEASNDVPTKVLGLYTQAQVLAYCGASAAHAIAGACIAAATELGGVYQGIGYAAMTYAALAAGDVTAALEASDAARPILRAQPDQVTMHQVLMAQLALAGGDAIAARQFANDAVDATNGWHRMVALTIRARVATARGEPELARDDAHAALACGAELHIYQGMPDAMELLAGLAGEVGSHSEGVRLLGAAAALRQQTRQVRFKIWDAGYQASVTALREAMGDEDFDRAWAEGAALSTDEAIAYAQRGRGERKRPARGWGSLTPTERDVVRLVSEGLSNKDIAKRLFVSPRTVQTHLTHVYAKLGLPSRVQLVDEAARRGSPS	not soluble
VRILVTGGVRSGKSTHAEALLGDAADVVYVAPGRPAAGSDPDWDARVALHRARRPPTWLTVETADVATALSEARSPVLVDCLGTWLTAIMDGEALWSAATADVYAVLEARLDGLCAALTGLPTAIVVTNEVGLGVVPSHSSGVLFRDLLGTINRRVAAVCDEVHLVIAGRVLKL	soluble
VRRGQLIDAAREITAQHGVAALTIRGVAEAAGVSLGVVHYHFEDKEELLTEMGQSLILEVSEAMRMAFSQLVGPLKKRGVPGLRELLCAGIRGLWPIIEATPDQQLLTYEITAQALRQRGAGNDSAGLVAARQYRTMDTEAVAFLNLCAHRAGVTWGTPVDQVARFALAVLDGAVLRWLVDRDSDAARTAFDDLVQIIAAKALEGEGSW	not soluble
VRRVPLFENMDERLLDAICERLKPCLFTEKSYLVREGDPVNEMLFIIRGRLESVTTDGGRSGFYNRSLLKEGDFCGDELLTWALDPKSGSNLPSSTRTVKALTEVEAFALIADELKFVASQFRR	soluble
VRSMGFLHRACRAPSSLPAPLMARPGRSVLARPAATPPGPLCATTRPRPPQGNQPPASRISNFPPKRHKTRVLAAAEDEVSAAVAALISAHGRRHHSLNNQAAAFHGQFAQNLNVGAGSCASAETTADAPTQALLGPADRQRRQRRAVRQWLVRWAAHPGRATRGFHNHRQ	not soluble

From the DeepSol protein solubility set
